Source: patent US20050244406A1 (G2 THERAPIES, published 2005)
Where a chain is given by its changes, count along the chain named.

Columns and labels:
CXCR2 = target: T1, CXCR2 (UniProt P25025 1-360, limits assumed); assay: flow cytometry on transfected L1.2 cells
T1 construct: whole, on cells; also called L1.2CXCR2
T1 sequence (looked up): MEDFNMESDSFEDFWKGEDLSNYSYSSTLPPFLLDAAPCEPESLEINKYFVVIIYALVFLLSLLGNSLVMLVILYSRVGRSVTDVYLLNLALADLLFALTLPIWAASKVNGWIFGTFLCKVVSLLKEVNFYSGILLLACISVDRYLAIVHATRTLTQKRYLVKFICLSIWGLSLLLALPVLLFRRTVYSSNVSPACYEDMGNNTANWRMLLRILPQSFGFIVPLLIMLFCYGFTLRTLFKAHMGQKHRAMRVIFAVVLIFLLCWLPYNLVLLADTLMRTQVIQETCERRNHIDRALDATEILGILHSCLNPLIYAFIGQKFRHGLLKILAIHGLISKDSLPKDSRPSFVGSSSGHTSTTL

CX3CR1 (V28) = target: T2, CX3CR1 (V28) (UniProt P49238 1-355, limits assumed); assay: flow cytometry on transfected L1.2 cells
T2 construct: whole, on cells; also called L1.2 V28
T2 sequence (looked up): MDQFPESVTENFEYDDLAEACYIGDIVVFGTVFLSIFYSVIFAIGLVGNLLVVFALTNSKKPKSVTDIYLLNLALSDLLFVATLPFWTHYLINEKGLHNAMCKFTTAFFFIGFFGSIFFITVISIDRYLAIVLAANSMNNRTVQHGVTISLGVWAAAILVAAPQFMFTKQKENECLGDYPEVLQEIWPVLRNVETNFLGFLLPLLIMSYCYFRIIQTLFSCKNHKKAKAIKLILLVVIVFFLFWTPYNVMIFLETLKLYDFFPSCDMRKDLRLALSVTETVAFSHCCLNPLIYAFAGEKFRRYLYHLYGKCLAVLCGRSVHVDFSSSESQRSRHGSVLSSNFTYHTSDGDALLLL

[1] = target: T3, C5aR N-terminal peptide (residues 9-29), PEPI (human); assay: ELISA, PEPI coated at 1 µg/ml
T3 construct: Synthetic peptide (Biosource), residues 9-29 of C5aR; also called C5aR N-terminal peptide 9-29
T3 peptide: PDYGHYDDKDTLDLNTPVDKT
Description: ELISAs were performed as described in Current Protocols in Immunology (Unit 2.1) (Edited by J. F. Coligan, A. M. Kruisbeek, D. B. Margulies, E. M. Shevach and W. Strober), John Wiley and Sons, New York. Briefly, 96-well flat bottom ELISA plates (Maxisorp; Nunc) were coated with 1 μg/ml protein (PEPI or OPG) in PBS at 37° C. for 1 hr, then blocked with BSA at 4° C. overnight. The plates were then washed, incubated with antibodies, washed and incubated with peroxidase-conjugated sheep anti-mouse IgG antibody. The substrate used was TMB substrate reagent (PharMingen).
ELISA assays were performed as described above to measure the reactivity of MAbs 6C12, 12D4, 7F3, with PEPI and OPG. OPG is a member of the TNF-receptor superfamily which binds specifically to its ligand TNFSF11/OPGL. More specifically, OPG is an osteoblast-secreted decoy receptor that functions as a negative regulator of bone resorption.
MAbs 6C12, 12D4 and 7F3 were used in the ELISA as purified proteins at a concentration of 1 μg/mL. MAb 9C1 (which is specific for OPG) and MAb 11B9 (which recognises PEPI) were used as positive controls. These control MAbs were used in the form of undiluted tissue culture supernatant.

human C5aR [2] = target: T4, human C5aR (human, UniProt P21730 1-350); assay: cell-based or functional assay
T4 chain: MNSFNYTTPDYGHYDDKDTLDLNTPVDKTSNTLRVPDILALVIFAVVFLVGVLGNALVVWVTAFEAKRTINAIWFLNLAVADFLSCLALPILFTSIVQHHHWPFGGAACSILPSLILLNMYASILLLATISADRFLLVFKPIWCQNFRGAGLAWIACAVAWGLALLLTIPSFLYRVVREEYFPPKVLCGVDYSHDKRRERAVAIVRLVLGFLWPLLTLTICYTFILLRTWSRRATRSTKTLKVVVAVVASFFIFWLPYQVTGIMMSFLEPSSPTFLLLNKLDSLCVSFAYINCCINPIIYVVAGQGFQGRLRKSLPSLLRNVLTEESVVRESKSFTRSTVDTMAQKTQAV

human C5aR [3] = target: T4, human C5aR; assay: flow cytometry on L1.2 C5aR transfectants
human C5aR [4] = target: T4, human C5aR; assay: flow cytometry on L1.2 cells with human C5aR, MAb 50 ug/ml, with PEPI 1-100 µM
Description: Anti-C5aR MAbs were added at 50 ug/ml, to a C5aR N-terminal synthetically produced peptide (residues 9-29) known as “PEPI” (Biosource; Eldridge) at concentrations ranging from 1 to 100 μM. Mouse L1.2 cells transfected with human C5a receptor and resuspended in 1% bovine serine albumin (BSA; GibcoBRL) (1×10^7/ml) were then added to give a total volume of 100 μl. The cells were incubated for 30 min at 4° C. and washed once with 0.1% BSA. Fluorescein (FITC) conjugated, sheep anti-mouse IgG, F(ab′)2 (Jackson Immunoresearch Laboratories Inc.) was used as a secondary Ab (1:200) and incubated for 15 min at 4° C., followed by an additional washing step with 0.1% BSA The cells were resuspended in 0.1% BSA and analysed by flow cytometry.

B1: MAb 7F3 (antibody, V domains shown)
VH: QVQLQQSGPELVKPGASVKISCKASGYAFSNSWMNWVKQRPGKGLEWIGRIYPGDGDTKYNGKFKGKATLTADKSSSTAYMQLSSLTSEDSAVYFCARFLLISTVTAVDYWGQGTTLTVSS
VL: DVVMTQSPLSLPVSLGNQASISCRSSQSLVHSNGNTYLHWYLQKPGQSPKLLIYKVSNRFSGVPDRFSGSGSGTDFSLKISRVEAEDLGVYFCSQSTLVPLTFGAGTKLELK
notes: Murine monoclonal antibody from hybridoma ECACC 00110609; also called monoclonal antibody 7F3
**Q.** Does B1 bind (CXCR2)?
**A.** no binding

**Q.** Does B1 bind (CX3CR1 (V28))?
**A.** no binding

**Q.** Does B1 bind [1]?
**A.** no binding (tested: 1 µg/mL)

**Q.** What about the “neutrophil migration towards C5a” value (human C5aR [2]) of the same binder?
**A.** 140 fold reduction

B2: MAb 12D4 (antibody, IgG3, V domains shown)
VH: QVQLKESGPGLVAPSQSLSITCTVSGFSLTSYGVDWVRQSPGKGLEWLGVIWGVGSTNYNSALKSRLSISKDNSKSQVFLKMNSLQTDDAAMYYCASHYGYDGLGFAYWGQGTLVTVSV
VL: B1 VL with S7T, N17D, N33S, D75H, S77T, V90I, L101P, A105G, L111I
notes: Murine monoclonal antibody from hybridoma ECACC 02090227; also called 12D4-P9
**Q.** What does the source list for B2?
**A.** binding result (human C5aR [3]): binds; binding result (CXCR2): no binding; binding result (CX3CR1 (V28)): no binding; binding result [1]: no binding (tested: 1 µg/mL)

B3: MAb 6C12 (antibody, IgG3, V domains shown)
VH: QVQLQQSGPEVVKPGASVKISCKASGYAFSRSWMNWVKQRPGKGLEWIGRIDAGDGDTKYNGKFKGKATLTADKSSSTAYMQLSSLTSEDSAVYFCASLLITTVVGAMDYWGQGTSVTVSS
VL: B1 VL with S7I, N17D, A19T, V30I, S77T, L88M, L98H, L101P, A105G, L111I
notes: Murine monoclonal antibody from hybridoma ECACC 02090226; also called 6C12 M12
**Q.** What does the source list for B3?
**A.** binding result (CXCR2): no binding; binding result (CX3CR1 (V28)): no binding; binding result (human C5aR [4]): binds; binding result [1]: no binding (tested: 1 µg/mL)
